Measured values published in the DeepSol protein solubility set.

assay: soluble on expression in E. coli; label from the status in PepcDB or PDB records

Sequence | soluble on expression in E. coli
MAYRERAAWAPEGYMLPLPGACLPSLPENLPGAPRPYRKGVSAGFVFRQGDACVPVVRGMGVVAAFGGEVVKVDPDFQELSEEAWQALLERVREGASPEEMDILRGLEVHVRHPDGRTTVYAHLQAPYPGLKVGSRVHRGDPIGYVGNTGLRGGASRLLFEVWEGEPDRSAFLFQGLEGEELLRRARAFFGLP | soluble
MSLDRTLRGRVEGKVVLITGATSGIGKATARKLAEAGAKVLTIARDEHKIAETQAEFAELGLTLQVYQGDLADLSQGEAITRQIVAEHGGVDILINNAGRSIRRAIEDSFDRFHDLERTMQLNYFGTLKVIMGLLPTMIEKKKGHIINISSIGVLTNAPRFSAYVASKSALDAWVRTAASEFADKGVNFSIINMPLVKTPMVAPTKVYEQVPMMTPEEAADLVCDTIINKHVRLATRLGVFGQVIHALAPRVAQVIMNTSEGHHHHHH | not soluble
MLKFRTVHGGLRLLGIRRTSTAPAASPNVRRLEYKPIKKVMVANRGEIAIRVFRACTELGIRTVAIYSEQDTGQMHRQKADEAYLIGRGLAPVQAYLHIPDIIKVAKENNVDAVHPGYGFLSERADFAQACQDAGVRFIGPSPEVVRKMGDKVEARAIAIAAGVPVVPGTDAPITSLHEAHEFSNTYGFPIIFKAAYGGGGRGMRVVHSYEELEENYTRAYSEALAAFGNGALFVEKFIEKPRHIEVQILGDQYGNILHLYERDCSIQRRHQKVVEIAPAAHLDPQLRTRLTSDSVKLAKQVGYENAGTVEFLVDRHGKHYFIEVNSRLQVEHTVTEEITDVDLVHAQIHVAEGRSLPDLGLRQENIRINGCAIQCRVTTEDPARSFQPDTGRIEVFRSGEGMGIRLDNASAFQGAVISPHYDSLLVKVIAHGKDHPTAATKMSRALAEFRVRGVKTNIAFLQNVLNNQQFLAGTVDTQFIDENPELFQLRPAQNRAQKLLHYLGHVMVNGPTTPIPVKASPSPTDPVVPAVPIGPPPAGFRDILLREGPEGFARAVRNHPGLLLMDTTFRDAHQSLLATRVRTHDLKKIAPYVAHNFSKLFSMENWGGATFDVAMRFLYECPWRRLQELRELIPNIPFQMLLRGANAVGYTNYPDNVVFKFCEVAKENGMDVFRVFDSLNYLPNMLLGMEAAGSAGGVVEAAISYTGDVADPSRTKYSLQYYMGLAEELVRAGTHILCIKDMAGLLKPTACTMLVSSLRDRFPDLPLHIHTHDTSGAGVAAMLACAQAGADVVDVAADSMSGMTSQPSMGALVACTRGTPLDTEVPMERVFDYSEYWEGARGLYAAFDCTATMKSGNSDVYENEIPGGQYTNLHFQAHSMGLGSKFKEVKKAYVEANQMLGDLIKVTPSSKIVGDLAQFMVQNGLSRAEAEAQAEELSFPRSVVEFLQGYIGVPHGGFPEPFRSKVLKDLPRVEGRPGASLPPLDLQALEKELVDRHGEEVTPEDVLSAAMYPDVFAHFKDFTATFGPLDSLNTRLFLQGPKIAEEFEVELERGKTLHIKALAVSDLNRAGQRQVFFELNGQLRSILVKDTQAMKEMHFHPKALKDVKGQIGAPMPGKVIDIKVVAGAKVAKGQPLCVLSAMKMETVVTSPMEGTVRKVHVTKDMTLEGDDLILEIE | soluble
SLPWTVRTETCRMPFRIDPKKPFGDEIRRAGLELIDDAVTILRDQPSGSHEAVHDARKRFKRLRALYRLIRKVAPDFAREENTRFRDIARSLAFARDATALVETAEYLEAFAASDTQGEALRSVTVMLRERRDDALDHEAGLDEAIAAAIAGCEKGRERLEDLSLPDDLNKTARLVRTGWAKQRVKARKALSCCREQADVEHFHELRKAGQTYWMHLGLMRRLWPSAMRAKRADTKRLVDILGHEHDLSVLTAVADREPDRFGNGERLALLLAAIIERQQALRAEGLVLADEVFSESARTESRIVGLLWRQAAK | not soluble
MPKILWKSLHLCFPSNLTKCYSSPCIPPSSADPDGIIQPNRPSIVLLNNFNLLYHNDNHHHPHRVIDLPSSSTTTTPAATSSSSTSSYESDISPDVSAAFASRRFFFSSPGRSNAITDSPEPRSREFSDNYDDATITSTKKKKKKVYDNSVTTTTTRLISGGTAVTQHVDSPDPLTDFRRSMQEMIDAAIDAGELSRDPNDGYDFLDELLLTYLSLNPADTHKFVIRAFSDILVSLLSEERRIC | soluble
MAHHHHHHMSSSVQNHQQTLLQARTHVAARDTTAVAILGAKAGSNGSSQSFRPAAQCLEHTQSSFNQTDISQRPPFIASEAATVSLLRRMEVLDNGRAGSTSDNAAANVVPSHQSVQRQRVTAHTLNKTTLANNDVTGEAPKPPSMAESTLKAGAQRRRIVKSNRNAVASRGPSESLKKCGPAVNVNDDGHRNDSAMAMNVPTQITVAARGGARGRVFHSNPFVTRNGKRFSAQNARRGISTATLSPPHTAITVSDDYSADFSVHDAFDVLSPMTPANPTYQKTLQVQQQQQWHSGSWIYDLNAGANTDSFTDDGSPIEFVVEDFELDDTVLGGTKHNDFGGQASKGGPDRFSTAAASNPDRLRQQNHARWAASRGPTRGATLASGTTATQQAGGARHLTTKSTMGSDPAGPDSPSGVLKERARLAKGVKLHNGPPMIKIPPLALDVINANRKTGKASYKVSHPKPGVVVPDIESSSTECSDMPNNSSLQGNFEALGVKVSNSPLGGRGSIEGRGNDKRVGGVHNGSLLSGSAVDGHRAGAAGSSAYKGSLQNCGRHGMLSMPFDGTSNDSQVHEASPSRNAREGFRGNSGGFGMHGGPFGSVQRQRWLVEADKHSSGESRPPMTNARKKAKCCVVM | not soluble
DIVEAQPSHPDKLLEVPLGRDISGMVQTADLSKMPHLLIAGSTGSGKSVAINGIITGILMQAKPHEVKLMMIDPKMVELNVYNGIPHLLTPVVTNPRKAAQALQKVVQEMEFRYEKFAATGVRNITGYNQLIQQKNAEDGENRPILPFIVVIVDELADLMMVASNEVEDAIIRLAQMARAAGIHMILATQRPSV | not soluble
MGSDKIHHHHHHMTSPCPQILWNMTRKCNFSCHYCYFPHDNSPVSDSLPVAALLDFLRSRGGEWLVGLTGGEPFIYPYFVDICSAIAAEHRIGIDTNLSVTPVVKRFARHVPPDRVHDIYAALHIEERERRGAVDAFIRNYHTLAGRGFTVKVNYVVHPSLVQRFAADCEFFGRHGIPLTPRPFKGVYEGRRYPEGYGSTAAAIFTQHPEAGRKTVFNFHGVPCHGGHTFLRMEPDGTVLRCPGDKTVLGNVLSGTVQTESGPTPCRMHRCPCQGVEHILPDAAQQDFIEGVRAYVVGDLPAAQRAFTAAHSRAPAMTQAANNAGVAAFAAGDAQAAACCFARAAADDPVTPLYAANLKLARRAAQPSPPSGTENETPELSLAVNYQRTGN | not soluble
SYYHHHHHHHEGVRTMEEECRVLSIQSHVIRGYVGNRAATFPLQVLGFEIDAVNSVQFSNHTGYAHWKGQVLNSDELQELYEGLRLNNMNKYDYVLTGYTRDKSFLAMVVDIVQELKQQNPRLVYVCDPVLGDKWDGEGSMYVPEDLLPVYKEKVVPLADIITPNQFEAELLSGRKIHSQEEALRVMDMLHSMGPDTVVITSSDLPSPQGSNYLIVLGSQRRRNPAGSVVMERIRMDIRKVDAVFVGTGDLFAAMLLAWTHKHPNNLKVACEKTVSTLHHVLQRTIQCAKAQAGEGVRPSPMQLELRMVQSKRDIEDPEIVVQATVL | soluble
ALEGTEFARAQLSEAMTLASGLKTKVSDIFSQDGSCPANTAATAGIEKDTDINGKYVAKVTTGGTAAASGGCTIVATMKASDVATPLRGKTLTLTLGNADKGSYTWACTSNADNKYLPKTCQTATTTTP | soluble
GPGSMIQSDIVSYVGEMGDVPDALLITPLKDRKSSVYLTKYEVARIIGERARQIVNGTSVLLDSQNGCGTGNSLELAEGCADPFAASVDPIHITKLELLQGRIPMIVRRTWPDGRTENIPVNELKVDKMLLDVQH | not soluble
GAMESEEPVFSLEQNRDDAMAALASTPTFQQTFINSISTQAMDLCKKYNLYPSVMIAQAALESNWGRSELGKAPNYNLFGIKGSYNGKSVTMKTWEYSDSKGWYQINANFAKYPSHKESLEDNAKKLRNGPSWDSSYYKGAWRENAKTYKDATAWLQGRYATDNTYASKLNTLISSYNLTQYD | soluble
RAIGQIRSADGGRTVDVDLAQPLHDWRVLFNNLLPSHVLRGGDSDFSTVLADGIPASAGRYSFAGVDRQRGIVTLNRNDRFWGEKPATVENIKFREVTDIAQGRELLRTGQIKFLDITPTEVAREAFELMPNTQVRTTTTSLNLQLIANTHLTLEQRADLQSLIDVHTVARIAMGRSTDLGVGDQPYEPHADHLMSLGRPVRIGVDPSDPEAQMAARVLSDVLARKSVKTQLVETDTTDLIGSK | not soluble
MAHHHHHHMMPRSENQKEEEEWELHPLFLSKIPNKKDIDKNPALSALITLINEEEEKEVFSYEPRRKNLKKKITEKGQIIYKKDRRNLYEPYQQNKNDKINYFEKKNFGGNADISKEEEVLDVEMDEEGTTVTTAEQGGDHSSQNVSNNQEATDQTSIGEVLVCLSMMNLKQ | soluble
MFSTKKSQGNLHKYIQRQSTDEFAVKAREHNYRARSAFKLIEINEKFKFLKPESTVIDIGCAPGSWLQVVVQKCPNGYASGVDLQNVLPIRGADILSLSDITDPAVKLKIREKLAHRQVDVVLSDMAPNPTGDNATDHLRLIELCRSVFRLFSVENEIELVKNGVYLCKIWDGSARAEFVRELSDRFSTVKTVKPTACRDNSAELYLFCRNFKK | not soluble
MNVLVIEDDKVFRGLLEEYLSMKGIKVESAERGKEAYKLLSEKHFNVVLLDLLLPDVNGLEILKWIKERSPETEVIVITGHGTIKTAVEAMKMGAYDFLTKPCMLEEIELTINKAIEHRKLRKENELLRREKDLKEEEYVFESPKMKEILEKIKKISCAECPVLITGESGVGKEVVARLIHKLSDRSKEPFVALNVASIPRDIFEAELFGYEKGAFTGAVSSKEGFFELADGGTLFLDEIGELSLEAQAKLLRVIESGKFYRLGGRKEIEVNVRILAATNRNIKELVKEGKFREDLYYRLGVIEIEIPPLRERKEDIIPLANHFLKKFSRKYAKEVEGFTKSAQELLLSYPWYGNVRELKNVIERAVLFSEGKFIDRGELSCLVNSK | soluble
MGSDKIHHHHHHAEAGVFSDVPTSHWSYPAIKDLAGKNIISGYGNGKFGFGDVATREQVAALIYRALLPNKQGGTFSNDGARYVLQDGSTLNNPYRDIRSGSTLFPEEVLTLTKLGVFNGDGNGGFRPKDSVSRAEMAQIIKNAFQVSAKQKHTFNDVPDGFWAEGAISAVQSNGIASGTGDGKFEPAKTVTREQYAQFLYNALQYKKPAVAVQDTGDAALLAAFKDEVQKRINAYETNITLPYKTTNSNTKEVMNTLFNAYKEVASKNEYTNNNRSNVSYGLSGSPGNYTFTLKITYRETKEQTEYVMKQAKAIVSSITQVGMDDHEKVKAIHDYVVKHVSYDTSYKAYTAYEALVNRSAVCQGYALLTYQLLKEAGIENHFVVGTGDGQPHAWNLVKIENKWYHLDTTFDDPVPDEQGRVTYSYFNLSDEQIARNHEWNRGDYPQATTNYYSTLTNKIAAGGTKTSAYQQILKDTKLNYLGNEYIANNYNEFKNKMQQRYNEKSPKIEILYKQSMDGALQDVKKAIGEIGYPQGANRVSYKAEPYNAKEGYSLVTITFM | not soluble
SLDAAVGDVIVTLGADLSESDKQKVLDEMNVPDNATTVTVTNKEEHEYLGKYISNAQIGSRAISSSSITIAKKGSGLNVETHNISGITDEMYLNALMTAGVKDAKVYVTAPFEVSGTAALTGLIKAYEVSSDEAISEDVKQVANQELVTTSELGDKIGNENAAALIAKIKEEFAKNGVPDNKADIEKQVDDAASDLNVTLTDSQKNQLVSLFNKMKNADIDWGQVSDQLDKAKDKITKFIESDEGKNFIQKVIDFFVSIWNAIVSIFK | soluble
